According to publication doi:10.1101/2024.05.03.592409 (bioRxiv, 2024):

Tests used:
Assay in all cases: PIE-FCCS
[1] = molecular target: GCN4 (membrane protein construct, live-cell dimer control)
[2] = molecular target: EGFR (human, UniProt P00533 25-1210)
[3] = molecular target: HER2 (human, UniProt P04626 23-1255)
[4] = molecular target: HER3 (human, UniProt P21860 20-1342)
Chain of HER3 (P21860 20-1342): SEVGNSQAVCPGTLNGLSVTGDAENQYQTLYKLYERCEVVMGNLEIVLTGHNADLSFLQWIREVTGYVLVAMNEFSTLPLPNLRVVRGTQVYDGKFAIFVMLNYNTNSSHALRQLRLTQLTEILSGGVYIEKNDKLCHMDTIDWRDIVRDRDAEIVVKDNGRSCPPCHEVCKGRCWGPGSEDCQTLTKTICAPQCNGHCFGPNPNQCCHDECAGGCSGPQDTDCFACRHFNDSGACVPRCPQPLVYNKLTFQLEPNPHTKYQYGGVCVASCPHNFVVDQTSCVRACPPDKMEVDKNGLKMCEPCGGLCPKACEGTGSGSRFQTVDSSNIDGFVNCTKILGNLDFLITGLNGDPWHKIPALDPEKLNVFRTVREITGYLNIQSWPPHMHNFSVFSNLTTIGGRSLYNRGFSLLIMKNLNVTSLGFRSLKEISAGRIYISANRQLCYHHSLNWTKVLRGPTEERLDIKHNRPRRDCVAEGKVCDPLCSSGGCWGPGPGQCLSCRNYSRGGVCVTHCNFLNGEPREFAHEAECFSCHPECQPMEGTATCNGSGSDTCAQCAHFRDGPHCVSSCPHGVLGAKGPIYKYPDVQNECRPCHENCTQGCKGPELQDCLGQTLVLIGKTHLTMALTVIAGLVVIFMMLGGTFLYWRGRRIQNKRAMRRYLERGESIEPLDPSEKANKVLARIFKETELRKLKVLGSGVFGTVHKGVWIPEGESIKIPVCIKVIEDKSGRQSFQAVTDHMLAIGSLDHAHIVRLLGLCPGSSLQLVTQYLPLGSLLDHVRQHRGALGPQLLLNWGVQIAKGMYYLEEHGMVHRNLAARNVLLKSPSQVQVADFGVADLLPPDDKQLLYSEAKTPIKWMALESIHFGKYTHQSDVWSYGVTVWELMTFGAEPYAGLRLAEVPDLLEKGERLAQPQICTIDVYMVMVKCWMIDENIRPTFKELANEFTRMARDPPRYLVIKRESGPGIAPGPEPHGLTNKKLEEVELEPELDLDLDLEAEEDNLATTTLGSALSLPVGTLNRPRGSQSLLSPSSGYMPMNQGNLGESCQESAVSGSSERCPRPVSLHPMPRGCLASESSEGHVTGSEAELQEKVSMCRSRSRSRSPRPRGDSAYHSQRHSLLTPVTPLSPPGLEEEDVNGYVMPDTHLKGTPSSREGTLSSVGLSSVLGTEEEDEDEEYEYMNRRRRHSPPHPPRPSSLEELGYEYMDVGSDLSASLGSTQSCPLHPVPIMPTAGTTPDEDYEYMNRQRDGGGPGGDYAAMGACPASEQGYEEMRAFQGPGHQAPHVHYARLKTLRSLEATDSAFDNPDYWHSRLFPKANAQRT

Molecule	median fc (fraction of cross-correlation) [1]	stoichiometry N [1]	median fc (fraction of cross-correlation) [2]	median fc (fraction of cross-correlation) [3]	median fc (fraction of cross-correlation) [4]
GCN4 (membrane protein construct, live-cell dimer control)	0.15	2			
HER4 (receptor) QSVCAGTENKLSSLSDLEQQYRALRKYYENCEVVMGNLEITSIEHNRDLSFLRSVREVTGYVLVALNQFRYLPLENLRIIRGTKLYEDRYALAIFLNYRKDGNFGLQELGLKNLTEILNGGVYVDQNKFLCYADTIHWQDIVRNPWPSNLTLVSTNGSSGCGRCHKSCTGRCWGPTENHCQTLTRTVCAEQCDGRCYGPYVSDCCHRECAGGCSGPKDTDCFACMNFNDSGACVTQCPQTFVYNPTTFQLEHNFNAKYTYGAFCVKKCPHNFVVDSSSCVRACPSSKMEVEENGIKMCKPCTDICPKACDGIGTGSLMSAQTVDSSNIDKFINCTKINGNLIFLVTGIHGDPYNAIEAIDPEKLNVFRTVREITGFLNIQSWPPNMTDFSVFSNLVTIGGRVLYSGLSLLILKQQGITSLQFQSLKEISAGNIYITDNSNLCYYHTINWTTLFSTINQRIVIRDNRKAENCTAEGMVCNHLCSSDGCWGPGPDQCLSCRRFSRGRICIESCNLYDGEFREFENGSICVECDPQCEKMEDGLLTCHGPGPDNCTKCSHFKDGPNCVEKCPDGLQGANSFIFKYADPDRECHPCHPNCTQGCNGPTSHDCIYYPWTGHSTLPQHARTPLIAAGVIGGLFILVIVGLTFAVYVRRKSIKKKRALRRFLETELVEPLTPSGTAPNQAQLRILKETELKRVKVLGSGAFGTVYKGIWVPEGETVKIPVAIKILNETTGPKANVEFMDEALIMASMDHPHLVRLLGVCLSPTIQLVTQLMPHGCLLEYVHEHKDNIGSQLLLNWCVQIAKGMMYLEERRLVHRDLAARNVLVKSPNHVKITDFGLARLLEGDEKEYNADGGKMPIKWMALECIHYRKFTHQSDVWSYGVTIWELMTFGGKPYDGIPTREIPDLLEKGERLPQPPICTIDVYMVMVKCWMIDADSRPKFKELAAEFSRMARDPQRYLVIQGDDRMKLPSPNDSKFFQNLLDEEDLEDMMDAEEYLVPQAFNIPPPIYTSRARIDSNRSEIGHSPPPAYTPMSGNQFVYRDGGFAAEQGVSVPYRAPTSTIPEAPVAQGATAEIFDDSCCNGTLRKPVAPHVQEDSSTQRYSADPTVFAPERSPRGELDEEGYMTPMRDKPKQEYLNPVEENPFVSRRKNGDLQALDNPEYHNASNGPPKAEDEYVNEPLYLNTFANTLGKAEYLKNNILSMPEKAKKAFDNPDYWNHSLPPRSTLQHPDYLQEYSTKYFYKQNGRIRPIVAENPEYLSEFSLKPGTVLPPPPYRHRNTVV			0.17	0.17	0.11
